According to the Immune Epitope Database (IEDB):
One block for each sequence: values may come before it.

How the values were obtained:
HLA-B*40:01 [1] = assay: IEDB peptide-MHC binding, purified MHC/competitive/fluorescence; filed as Kd, often an IC50 or EC50 that approximates it; ≥ and ≤ were set here for values at or beyond the usual limits of such assays
HLA-B*27:05 [2] = assay: as above
HLA-C*07:02 = assay: IEDB peptide-MHC binding, purified MHC/direct/fluorescence; filed as Kd, often an IC50 or EC50 that approximates it; ≥ and ≤ were set here for values at or beyond the usual limits of such assays
HLA-A*24:02 [3] = assay: IEDB peptide-MHC binding, purified MHC/competitive/fluorescence; filed as Kd, often an IC50 or EC50 that approximates it; ≥ and ≤ were set here for values at or beyond the usual limits of such assays
HLA-C*15:02 = assay: IEDB peptide-MHC binding, purified MHC/direct/fluorescence; filed as Kd, often an IC50 or EC50 that approximates it; ≥ and ≤ were set here for values at or beyond the usual limits of such assays
HLA-C*14:02 = assay: as above
HLA-A*02:12 [4] = assay: as above
HLA-A*24:02 [5] = assay: as above; conditions: source organism: Influenza A virus (A/camel/Mongolia/1982(H1N1))
HLA-B*40:01 [6] = assay: as above
HLA-A*02:11 = assay: as above
HLA-A*01:01 = assay: as above
HLA-B*08:01 = assay: as above; conditions: source organism: Influenza A virus (A/camel/Mongolia/1982(H1N1))
HLA-B*27:05 [7] = assay: as above
HLA-B*44:02 = assay: as above
HLA-A*11:01 = assay: as above; conditions: source organism: Influenza A virus (A/camel/Mongolia/1982(H1N1))
HLA-B*15:09 = assay: as above
HLA-B*46:01 = assay: as above
HLA-A*02:06 = assay: as above; conditions: source organism: Influenza A virus (A/Taiwan/2/2006(H1N1))
HLA-A*02:03 = assay: as above; conditions: source organism: Influenza A virus (A/Taiwan/2/2006(H1N1))
HLA-A*03:01 [8] = assay: as above
HLA-A*02:01 = assay: as above
HLA-B*58:01 = assay: as above
HLA-A*31:01 [9] = assay: as above
HLA-B*15:01 = assay: as above
HLA-B*18:01 [10] = assay: as above
HLA-B*07:02 = assay: as above
HLA-A*26:02 = assay: as above
HLA-A*26:01 [11] = assay: as above; conditions: source organism: Vibrio cholerae V52
HLA-A*24:03 = assay: as above; conditions: source organism: Yersinia enterocolitica subsp. enterocolitica 8081
HLA-B*27:03 [12] = assay: as above; conditions: source organism: Yersinia enterocolitica subsp. enterocolitica 8081
HLA-B*39:01 [13] = assay: as above
HLA-A*02:19 [14] = assay: as above; conditions: source organism: Yersinia enterocolitica subsp. enterocolitica 8081
HLA-B*15:17 = assay: as above; conditions: source organism: Yersinia enterocolitica subsp. enterocolitica 8081
HLA-B*57:01 = assay: as above
HLA-A*02:12 [15] = assay: IEDB peptide-MHC binding, purified MHC/competitive/fluorescence; filed as Kd, often an IC50 or EC50 that approximates it; ≥ and ≤ were set here for values at or beyond the usual limits of such assays; conditions: source organism: Toxoplasma gondii
HLA-B*27:03 [16] = assay: as above; conditions: source organism: Toxoplasma gondii
HLA-B*39:01 [17] = assay: as above; conditions: source organism: Toxoplasma gondii
HLA-A*02:19 [18] = assay: as above; conditions: source organism: Toxoplasma gondii
HLA-A*03:01 [19] = assay: as above; conditions: source organism: Toxoplasma gondii
HLA-A*31:01 [20] = assay: as above; conditions: source organism: Toxoplasma gondii
HLA-A*26:01 [21] = assay: as above; conditions: source organism: Toxoplasma gondii
HLA-B*18:01 [22] = assay: as above; conditions: source organism: Toxoplasma gondii
HLA-C*06:02 = assay: IEDB peptide-MHC binding, purified MHC/direct/fluorescence; filed as Kd, often an IC50 or EC50 that approximates it; ≥ and ≤ were set here for values at or beyond the usual limits of such assays; conditions: source organism: Toxoplasma gondii
HLA-A*69:01 = assay: as above; conditions: source organism: Lassa virus Josiah
HLA-B*48:01 = assay: as above; conditions: source organism: Lassa virus Josiah
[23] = source organism: Influenza A virus (A/Harbin/1/1988(H1N2))
[24] = source organism: Vibrio vulnificus YJ016
[25] = source organism: Influenza A virus (A/Taiwan/2/2006(H1N1))
[26] = source organism: Influenza A virus (A/camel/Mongolia/1982(H1N1))
[27] = source organism: Yersinia enterocolitica subsp. enterocolitica 8081
[28] = source organism: Toxoplasma gondii
[29] = source organism: Lassa virus Josiah

- Kd (HLA-B*40:01 [1]; source organism: Escherichia coli E22): 0.0055 µM
Sequence: LEALSPPLL

Sequence: GRINYYWTL
- Kd (HLA-B*27:05 [2]; [23]): 0.049 µM
- Kd (HLA-C*07:02; [23]): 0.025 µM

Sequence: YYGRWVHEF
- Kd (HLA-A*24:02 [3]; [24]): ≤ 0.0001 µM
- Kd (HLA-C*07:02; [24]): 0.046 µM
- Kd (HLA-C*15:02; [24]): ≥ 20 µM
- Kd (HLA-C*14:02; [24]): 0.025 µM

Sequence: ELDEIGEDV
- Kd (HLA-A*02:12 [4]; [25]): 1.5 µM
- Kd (HLA-A*24:02 [5]): ≥ 20 µM
- Kd (HLA-B*40:01 [6]; [26]): ≥ 20 µM
- Kd (HLA-A*02:11; [25]): 0.134 µM
- Kd (HLA-A*01:01; [26]): ≥ 20 µM
- Kd (HLA-B*08:01): ≥ 20 µM
- Kd (HLA-B*27:05 [7]; [26]): ≥ 20 µM
- Kd (HLA-B*44:02; [26]): ≥ 20 µM
- Kd (HLA-A*11:01): ≥ 20 µM
- Kd (HLA-B*15:09; [25]): ≥ 20 µM
- Kd (HLA-B*46:01; [26]): ≥ 20 µM
- Kd (HLA-A*02:06): ≥ 20 µM
- Kd (HLA-A*02:03): ≥ 5 µM
- Kd (HLA-A*03:01 [8]; [26]): ≥ 20 µM
- Kd (HLA-A*02:01; source organism: Influenza A virus (A/Puerto Rico/8/34/Mount Sinai(H1N1))): 2.44 µM
- Kd (HLA-B*58:01; [26]): ≥ 20 µM
- Kd (HLA-A*31:01 [9]; [26]): ≥ 20 µM
- Kd (HLA-B*15:01; [26]): ≥ 20 µM
- Kd (HLA-B*18:01 [10]; [26]): ≥ 20 µM
- Kd (HLA-B*07:02; [26]): ≥ 20 µM

Sequence: DIIWHLNDL
- Kd (HLA-A*26:02; source organism: Vibrio cholerae V52): 0.003 µM
- Kd (HLA-A*26:01 [11]): 0.479 µM

- Kd (HLA-B*40:01 [1]; source organism: Escherichia coli B7A): 0.0878 µM
Sequence: GEINGEHVP

Sequence: YIYDGKVNY
- Kd (HLA-A*02:12 [4]; [27]): ≥ 20 µM
- Kd (HLA-A*24:03): ≥ 20 µM
- Kd (HLA-B*27:03 [12]): ≥ 20 µM
- Kd (HLA-A*02:11; [27]): ≥ 20 µM
- Kd (HLA-B*39:01 [13]; [27]): ≥ 20 µM
- Kd (HLA-A*02:19 [14]): ≥ 20 µM
- Kd (HLA-B*15:17): 0.003 µM
- Kd (HLA-B*57:01; [27]): ≥ 20 µM
- Kd (HLA-B*18:01 [10]; [27]): ≥ 20 µM

Sequence: EVHTWTEQY
- Kd (HLA-A*26:02; source organism: dengue virus type 3): ≤ 0.001 µM

Sequence: RTWFYRTEF
- Kd (HLA-A*02:12 [15]): ≥ 20 µM
- Kd (HLA-B*27:03 [16]): ≥ 20 µM
- Kd (HLA-B*39:01 [17]): ≥ 20 µM
- Kd (HLA-A*02:19 [18]): ≥ 20 µM
- Kd (HLA-A*03:01 [19]): ≥ 20 µM
- Kd (HLA-A*31:01 [20]): 0.0262 µM
- Kd (HLA-A*26:01 [21]): ≥ 20 µM
- Kd (HLA-B*18:01 [22]): ≥ 20 µM
- Kd (HLA-C*06:02): ≥ 20 µM
- Kd (HLA-C*15:02; [28]): 0.127 µM
- Kd (HLA-C*14:02; [28]): 0.153 µM

Sequence: TRVTNNVYL
- Kd (HLA-B*15:09; source organism: Variola virus): 4.06 µM
- Kd (HLA-B*39:01 [13]; source organism: Camelpox virus M-96): 0.0198 µM

Sequence: NHYLCLNCL
- Kd (HLA-B*40:01 [6]; [29]): ≥ 20 µM
- Kd (HLA-A*01:01; [29]): ≥ 20 µM
- Kd (HLA-B*27:05 [7]; [29]): ≥ 20 µM
- Kd (HLA-B*44:02; [29]): ≥ 20 µM
- Kd (HLA-B*15:09; source organism: Mammarenavirus lassaense): 0.431 µM
- Kd (HLA-B*46:01; [29]): ≥ 20 µM
- Kd (HLA-B*39:01 [13]; [29]): 0.026 µM
- Kd (HLA-A*03:01 [8]; [29]): ≥ 20 µM
- Kd (HLA-A*02:01; [29]): ≥ 20 µM
- Kd (HLA-A*69:01): ≥ 20 µM
- Kd (HLA-B*58:01; [29]): ≥ 20 µM
- Kd (HLA-A*31:01 [9]; [29]): ≥ 20 µM
- Kd (HLA-B*15:01; [29]): ≥ 20 µM
- Kd (HLA-B*48:01): ≥ 20 µM
- Kd (HLA-B*57:01; [29]): ≥ 20 µM
- Kd (HLA-B*07:02; [29]): ≥ 20 µM

Sequence: RLGKGYMF
- Kd (HLA-A*24:02 [3]; source organism: Influenza A virus (A/Fort Monmouth/1/1947-mouse adapted(H1N1))): 0.0326 µM

Sequence: LEVSFGSVI
- Kd (HLA-B*40:01 [1]; source organism: Salmonella enterica subsp. enterica serovar Typhi): 0.0035 µM

- Kd (HLA-B*27:05 [2]; source organism: Escherichia coli 536): ≥ 20 µM
Sequence: AREIRDQGY
